According to patent publication US20250295803A1, “5T4 ANTIBODY-DRUG CONJUGATES AND USES THEREOF” (EXELIXIS, INC., priority 2022, published 2025):

Columns and labels:
[1] = system: HEK-cyno-5T4 cells; test: Cell binding (flow cytometry), HEK-cyno-5T4 cells; format: cell-based
Description: (§1) Antibodies that were selected for binding to 5T4, for example, such as those described in Example 2, were evaluated for binding to cells that express 5T4. Cells were harvested at 70-90% confluence on the day of the assay. In a v-bottom 96-well plate (Costar 3897), 100,000 cells per well were incubated with 50 μL per well 8- or 12-point antibody dilution series for 30 minutes at +4° C. After incubation, cells were washed once with PBS by centrifugation at 200×g for 5 minutes. Cells were then incubated with 50 μL per well of Alexa Fluor 488 Goat anti-human IgG Fab (Jackson Immuno Research 109-547-003) at 1:100 dilution for 30 minutes at +4° C. Cells were washed twice with PBS by centrifugation at 200×g for 5 minutes and were acquired on iQue Screener Plus (Sartorius). Mean fluorescence intensities of BL1 (Alexa-Fluor-488) channel were plotted against antibody concentrations to generate a dose response curve and EC50 values.

[2] = system: MCF-7 cells; test: Cell binding (flow cytometry), MCF-7 cells; format: cell-based
Description: as §1

[3] = target: T1, HEK293 and CHO cells transfected to express rat 5T4 (Rattus norvegicus, UniProt Q5PQV5); test: Cell binding to transfected HEK293 and CHO cells, rat 5T4; format: cell-based
T1 construct: expressed in transfected cells; host or cells: HEK293 and CHO
T1 sequence (Q5PQV5 32-426): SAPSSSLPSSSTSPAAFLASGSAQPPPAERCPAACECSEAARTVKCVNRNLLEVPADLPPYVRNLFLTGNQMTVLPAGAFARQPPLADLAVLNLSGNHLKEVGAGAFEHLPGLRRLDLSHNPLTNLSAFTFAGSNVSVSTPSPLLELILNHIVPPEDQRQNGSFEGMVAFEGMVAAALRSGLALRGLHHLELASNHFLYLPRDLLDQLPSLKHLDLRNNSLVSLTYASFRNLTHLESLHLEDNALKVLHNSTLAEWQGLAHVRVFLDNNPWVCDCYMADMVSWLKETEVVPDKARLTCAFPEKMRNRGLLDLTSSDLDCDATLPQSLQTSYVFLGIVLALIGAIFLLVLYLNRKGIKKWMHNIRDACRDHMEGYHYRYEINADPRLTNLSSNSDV
Description: Unconjugated antibodies were tested for their ability to bind to HEK293 and CHO cells transfected to express human, cyno, rat, or mouse 5T4.

[4] = target: T2, unconjugated human TPBG/5T4 protein with a c-terminal polyhistidine and Avi tag (AcroBiosystems Cat. No. … (human, UniProt Q13641 32-355)); test: ELISA on coated human 5T4 His-Avi (Acro TPG-H52E5); antibody condition: pH 8.5 Day 0
T2 construct: Bought protein; also called Acro TPGH52E5; Acro Catalog No. TPGH52E; not shown: C-terminal polyhistidine and Avi tag
T2 sequence: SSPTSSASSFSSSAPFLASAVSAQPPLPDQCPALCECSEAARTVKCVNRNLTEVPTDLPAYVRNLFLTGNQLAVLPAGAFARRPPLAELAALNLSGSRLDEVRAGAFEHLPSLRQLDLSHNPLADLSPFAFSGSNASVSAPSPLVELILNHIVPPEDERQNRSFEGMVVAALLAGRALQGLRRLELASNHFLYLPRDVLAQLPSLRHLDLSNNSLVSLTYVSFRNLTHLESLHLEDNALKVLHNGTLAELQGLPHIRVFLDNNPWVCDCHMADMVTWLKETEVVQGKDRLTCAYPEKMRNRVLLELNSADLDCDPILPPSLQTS
Description: (§2) A. Normal Binding Unconjugated antibodies were tested for their ability to bind to human 5T4 (hu5T4) using ELISA. On Day 1, unconjugated human TPBG/5T4 protein with a c-terminal polyhistidine and Avi (AVITAG™) tag (AcroBiosystems (Newark, DE, USA), Cat. No. TPG-H52E5) was diluted 2 μg/mL in PBS, mixed thoroughly, plated 100 μL per well in a 96-well plate (Nunc MAXISORP®) and incubated overnight at 4° C.

[5] = target: T2, unconjugated human TPBG/5T4 protein …; test: ELISA on coated human 5T4 His-Avi (Acro TPG-H52E5); antibody condition: pH 8.5 Day 1
Description: as §2

[6] = target: T2, unconjugated human TPBG/5T4 protein …; test: ELISA on coated human 5T4 His-Avi (Acro TPG-H52E5); antibody condition: pH 8.5 Day 7
Description: as §2

[7] = target: T2, unconjugated human TPBG/5T4 protein …; test: Octet, antibody on AHC sensors, human 5T4 in solution (monovalent); Acro TPGH52E5 Lot B465-87AF1-JP
Description: Monovalent binding assays were employed to determine the relative affinity of each 5T4 binder obtained by the phage display in Example 1 to human 5T4. Human 5T4 was purchased from Acro Biosystems (Acro Catalog No. TPGH52E) and also produced separately. The monovalent interaction of binders to human 5T4 was monitored using an Octet (Pall ForteBio) instrument. For these assays, 36 nM antibody was immobilized on anti-human Fc (AHC) sensors in 1× kinetic buffer (ForteBio). The sensors were then dipped in wells containing a 3× serial dilution of human 5T4 ranging from 1 μM to 1.37 nM. The association was allowed to reach equilibrium. Sensors were then moved to wells containing only 1× kinetic buffer and allowed to dissociate to equilibrium. Association and dissociation rates were measured and from these, monovalent KDS were calculated using the onboard analysis software (ForteBio).

B1: mAbA4: 5T4 antibody comprising VH of SEQ ID NO:25 and VL of SEQ ID NO:26 (antibody, V domains shown)
VH: EVQLVESGGGLVQPGGSLRLSCAASGFTFSRYYIHWVRQAPGKGLEWVAFISPGGSYTYYADSVKGRFTISADTSKNTAYLQMNSLRAEDTAVYYCAREYYSMGVLDYWGQGTLVTVSS
VL: DIQMTQSPSSLSASVGDRVTITCRASQSVSSAVAWYQQKPGKAPKLLIYSASSLYSGVPSRFSGSRSGTDFTLTISSLQPEDFATYYCQQAYESPYTFGQGTKVEIK
modifications: Antibody mAbA4 VH Sequence; Antibody mAbA4 VL Sequence
binding to HEK-cyno-5T4 cells [1]: binding | binding to MCF-7 cells [2]: binding | reactivity to cells transfected to express rat 5T4 [3]: not to cells transfected to express rat or mouse 5T4

B2: mAbA15: 5T4 antibody comprising VH of SEQ ID NO:44 and VL of SEQ ID NO:45 (antibody, V domains shown)
VH: EVQLVESGGGLVQPGGSLRLSCAASGFTFSSYYIHWVRQAPGKGLEWVAYITSTGSYTEYADSVKGRFTISADTSKNTAYLQMNSLRAEDTAVYYCARYDRSTRYSGLDYWGQGTLVTVSS
VL: DIQMTQSPSSLSASVGDRVTITCRASQSVSSAVAWYQQKPGKAPKLLIYSASSLYSGVPSRFSGSRSGTDFTLTISSLQPEDFATYYCQQAYATPVTFGQGTKVEIK
modifications: Antibody mAbA15 VH Sequence; Antibody mAbA15 VL Sequence
binding to HEK-cyno-5T4 cells [1]: binding | binding to MCF-7 cells [2]: binding | reactivity to cells transfected to express rat 5T4 [3]: not to cells transfected to express rat or mouse 5T4

B3: mAbA17 (antibody, V domains shown)
VH: EVQLVESGGGLVQPGGSLRLSCAASGFTFSRYWIHWVRQAPGKGLEWVAAIFPYSGSTLYADSVKGRFTISADTSKNTAYLQMNSLRAEDTAVYYCARSPSRSILPSGLDYWGQGTLVTVSS
VL: DIQMTQSPSSLSASVGDRVTITCRASQSVSSAVAWYQQKPGKAPKLLIYSASSLYSGVPSRFSGSRSGTDFTLTISSLQPEDFATYYCQQGDGSPYTFGQGTKVEIKR
notes: also called Antibody mAbA17
EC50 [4]: 153 pM | EC50 [5]: 174 pM | EC50 [6]: 158 pM | Kd [7]: 21100 pM

B4: mAbA4 (antibody, V domains shown)
VH: EVQLVESGGGLVQPGGSLRLSCAASGFTFSRYYIHWVRQAPGKGLEWVAFISPGGSYTYYADSVKGRFTISADTSKNTAYLQMNSLRAEDTAVYYCAREYYSMGVLDYWGQGTLVTVSS
VL: DIQMTQSPSSLSASVGDRVTITCRASQSVSSAVAWYQQKPGKAPKLLIYSASSLYSGVPSRFSGSRSGTDFTLTISSLQPEDFATYYCQQAYESPYTFGQGTKVEIKR
notes: also called Antibody mAbA4
EC50 [4]: 120 pM | EC50 [5]: 127 pM | EC50 [6]: 128 pM | Kd [7]: 30200 pM

B5: mAbA15 (antibody, V domains shown)
VH: EVQLVESGGGLVQPGGSLRLSCAASGFTFSSYYIHWVRQAPGKGLEWVAYITSTGSYTEYADSVKGRFTISADTSKNTAYLQMNSLRAEDTAVYYCARYDRSTRYSGLDYWGQGTLVTVSS
VL: DIQMTQSPSSLSASVGDRVTITCRASQSVSSAVAWYQQKPGKAPKLLIYSASSLYSGVPSRFSGSRSGTDFTLTISSLQPEDFATYYCQQAYATPVTFGQGTKVEIKR
notes: also called Antibody mAbA15
EC50 [4]: 134 pM | EC50 [5]: 128 pM | EC50 [6]: 143 pM | Kd [7]: 11200 pM

B6: mAbA17: 5T4 antibody comprising VH of SEQ ID NO:62 and VL of SEQ ID NO:63 (antibody, V domains shown)
VH: EVQLVESGGGLVQPGGSLRLSCAASGFTFSRYWIHWVRQAPGKGLEWVAAIFPYSGSTLYADSVKGRFTISADTSKNTAYLQMNSLRAEDTAVYYCARSPSRSILPSGLDYWGQGTLVTVSS
VL: DIQMTQSPSSLSASVGDRVTITCRASQSVSSAVAWYQQKPGKAPKLLIYSASSLYSGVPSRFSGSRSGTDFTLTISSLQPEDFATYYCQQGDGSPYTFGQGTKVEIK
modifications: Antibody mAbA17 VH Sequence; Antibody mAbA17 VL Sequence
binding to HEK-cyno-5T4 cells [1]: binding | binding to MCF-7 cells [2]: binding | reactivity to cells transfected to express rat 5T4 [3]: not to cells transfected to express rat or mouse 5T4
